Patent US20220323599A1 (CELGENE, published 2022)
Read-outs that look alike come from different tables or passages of the source.

Legend:
[1] = biological target: T1, human BCMA on cells (endogenous on multiple myeloma cell lines; stably transfected 293T-hBCMA) (human, UniProt Q02223 1-184); experiment: cell-based or functional assay
T1 sequence: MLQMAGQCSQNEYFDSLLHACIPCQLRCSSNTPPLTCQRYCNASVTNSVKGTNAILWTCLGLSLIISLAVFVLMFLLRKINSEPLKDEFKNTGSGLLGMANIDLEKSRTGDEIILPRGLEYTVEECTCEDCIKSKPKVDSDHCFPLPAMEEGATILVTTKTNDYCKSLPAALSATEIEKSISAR

[2] = biological target: T2, cynomolgus BCMA on stably transfected 293T cells (cynomolgus monkey, UniProt Q02223 1-184 (human entry)); experiment: FACS cell binding, 293T-cynoBCMA cells
[3] = biological target: T1, human BCMA on cells (endogenous on …); experiment: FACS cell binding, NCI-H929 (BCMA+) cells
[4] = biological target: T3, cyno BCMA-Fc (custom protein production) (cynomolgus monkey, UniProt Q02223 1-54 (human entry)); experiment: SPR (Biacore), antibody captured on anti-Fab or anti-Fc surface, cyno BCMA-Fc as analyte, 25 C
T3 construct: also called cynomolgus BCMA-Fc; not shown: Fc part of the fusion protein, not described

[5] = biological target: T4, human BCMA-Fc (R&D Systems) (human, UniProt Q02223 1-54); experiment: SPR (Biacore), antibody captured on anti-Fab or anti-Fc surface, human BCMA-Fc as analyte, 25 C
T4 construct: Bought protein; not shown: Fc part of the bought fusion protein, not described
T4 sequence: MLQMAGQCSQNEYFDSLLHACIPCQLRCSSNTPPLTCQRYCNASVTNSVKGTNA

[6] = biological target: T1, human BCMA on cells (endogenous on …); experiment: cell-based or functional assay; remark: listed apart in the source
[7] = biological target: T1, human BCMA on cells (endogenous on …); experiment: cell-based or functional assay; remark: listed apart in the source
[8] = biological target: T1, human BCMA on cells (endogenous on …); experiment: cell-based or functional assay; remark: listed apart in the source
[9] = biological target: T1, human BCMA on cells (endogenous on …); experiment: cell-based or functional assay; remark: listed apart in the source
[10] = biological target: T1, human BCMA on cells (endogenous on …); experiment: flow cytometry, ARP-1 cells
[11] = biological target: T1, human BCMA on cells (endogenous on …); experiment: flow cytometry, MM.1S cells
[12] = biological target: T1, human BCMA on cells (endogenous on …); experiment: flow cytometry, OPM-2 cells
[13] = biological target: T1, human BCMA on cells (endogenous on …); experiment: flow cytometry, U266B1 cells
[14] = biological target: T1, human BCMA on cells (endogenous on …); experiment: flow cytometry, NCI-H929 cells
[15] = biological target: T1, human BCMA on cells (endogenous on …); experiment: flow cytometry, RPMI-8226 cells
[16] = biological target: T2, cynomolgus BCMA on stably transfected …; experiment: flow cytometry, 293T-cBCMA cells
[17] = biological target: T5, mouse BCMA on transfected HEK293T cells (mouse, UniProt O88472 1-185); experiment: flow cytometry on 293T-mBCMA cells
T5 sequence: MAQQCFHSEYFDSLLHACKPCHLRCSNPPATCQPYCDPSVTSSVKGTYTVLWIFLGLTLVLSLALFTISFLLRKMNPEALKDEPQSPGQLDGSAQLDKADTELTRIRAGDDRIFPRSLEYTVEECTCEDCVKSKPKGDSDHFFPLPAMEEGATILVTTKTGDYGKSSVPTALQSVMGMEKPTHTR

[18] = biological target: T6, human TACI on stably transfected 293T cells (human, UniProt O14836 1-293); experiment: flow cytometry on 293T cells stably expressing human TACI
T6 construct: whole, on cells; also called TNFRSF13B
T6 sequence (looked up): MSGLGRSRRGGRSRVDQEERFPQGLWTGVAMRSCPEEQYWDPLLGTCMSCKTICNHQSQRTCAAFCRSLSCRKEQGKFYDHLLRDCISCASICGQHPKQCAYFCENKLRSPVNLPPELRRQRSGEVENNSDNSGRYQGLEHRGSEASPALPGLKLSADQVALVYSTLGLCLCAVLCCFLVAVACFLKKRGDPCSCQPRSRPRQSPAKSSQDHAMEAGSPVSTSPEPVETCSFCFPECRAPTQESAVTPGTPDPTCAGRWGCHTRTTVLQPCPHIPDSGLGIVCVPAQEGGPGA

[19] = biological target: T7, human BAFF-R on stably transfected 293T cells (human, UniProt Q96RJ3 1-184); experiment: flow cytometry on 293T cells stably expressing human BAFF-R
T7 construct: whole, on cells; also called TNFRSF13C

[20] = biological target: T1, human BCMA on cells (endogenous on …); experiment: flow cytometry, 293T-hBCMA cells
[21] = biological target: T1, human BCMA on cells (endogenous on …); experiment: flow cytometry, NCI-H929 cells; NCI-H929 cells

T2 sequence (Q02223 other isoform, or with tags, fused parts or gaps): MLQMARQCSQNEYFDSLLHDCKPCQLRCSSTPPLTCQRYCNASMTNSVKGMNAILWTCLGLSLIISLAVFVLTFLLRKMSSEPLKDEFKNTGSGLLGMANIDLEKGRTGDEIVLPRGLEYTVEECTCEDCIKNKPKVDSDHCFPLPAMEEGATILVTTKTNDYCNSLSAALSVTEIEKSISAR

B1: 2265-F02 (Fab-HC Variant ID; Antibody 4), cell-free expressed His- and FLAG-tagged IgG1 used in screening (antibody, V domains shown)
VH: EVQLVESGGGLVQPGGSLRLSCAASGFNISAPGIHWVRQAPGKGLEWVGFINPAGGYTDYADSVKGRFTISADTSKNTAYLQMNSLRAEDTAVYYCARDYIRQYWTYVLDYWGQGTLVTVSS
VL: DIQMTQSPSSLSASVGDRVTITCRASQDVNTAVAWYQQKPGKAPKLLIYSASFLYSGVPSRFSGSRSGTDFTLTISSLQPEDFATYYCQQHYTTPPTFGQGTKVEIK
Question: What does the source list for B1?
Answer: ARP-1, Conjugate M 2° antibody cell killing, EC50 [1]: 1.9 nM; U266B1, Conjugate M 2° antibody cell killing, EC50 [1]: 0.9 nM; Kd [2]: 6.2 nM; Kd [3]: 5.2 nM; Kd [4]: 3.68 nM; koff [4]: 0.00116 s⁻¹; kon [4]: 315000 M⁻¹ s⁻¹; Kd [5]: 0.499 nM; koff [5]: 0.000293 s⁻¹; kon [5]: 587000 M⁻¹ s⁻¹

B2: Conjugate 4: Antibody 2265-F02 conjugated to a non-cleavable maytansine warhead (Conjugate M) at Y180/F404 site (DAR4) (antibody, human IgG1, kappa, V domains shown)
VH: EVQLVESGGGLVQPGGSLRLSCAASGFNISAPGIHWVRQAPGKGLEWVGFINPAGGYTDYADSVKGRFTISADTSKNTAYLQMNSLRAEDTAVYYCARDYIRQYWTYVLDYWGQGTLVTVSS
VL: not shown
modifications: p-azidomethyl-phenylalanine (pAMF) at HC-Y180 and HC-F404 by EU numbering (actual positions 186 and 410 as printed), each linked to the non-cleavable maytansinoid drug-linker (Conjugate M); DAR 4
notes: also called Conjugate 4 ADC; BCMA ADC Conjugate 4
Question: With B2 as the binder, how does the “cell killing EC50, NCI-H929, Experiment 1” value [6] read?
Answer: 0.8 nM

Question: What about the “cell killing EC50, NCI-H929, Experiment 2” value [6] of the same binder?
Answer: 0.8 nM

Question: And the “cell killing EC50, OPM2, Experiment 1” value [6]?
Answer: 1.7 nM

Question: And the “cell killing EC50, OPM2, Experiment 2” value [6]?
Answer: 1.8 nM

Question: And the “cell killing EC50, U266B1, Experiment 1” value [6]?
Answer: 0.8 nM

Question: What about the “cell killing EC50, U266B1, Experiment 2” value [6] of the same binder?
Answer: 0.9 nM

Question: And the “cell killing EC50, NCI-H929, Experiment 1” value [7]?
Answer: 0.7 nM

Question: And the “cell killing EC50, NCI-H929, Experiment 2” value [7]?
Answer: 0.8 nM

Question: And the “cell killing EC50, OPM2, Experiment 1” value [7]?
Answer: 1.7 nM

Question: And the “cell killing EC50, OPM2, Experiment 2” value [7]?
Answer: 2 nM

Question: And the “cell killing EC50, U266B1, Experiment 1” value [7]?
Answer: 0.7 nM

Question: What about the “cell killing EC50, U266B1, Experiment 2” value [7] of the same binder?
Answer: 0.8 nM

Question: And the “cell killing EC50, ARP-1, no competing reagent” value [8]?
Answer: 0.7 nM

Question: And the “cell killing EC50, NCI-H929, no competing reagent” value [8]?
Answer: 0.9 nM

Question: What about the “cell killing EC50, OPM2, no competing reagent” value [8] of the same binder?
Answer: 3.3 nM

Question: And the “cell killing EC50, U266B1, no competing reagent” value [8]?
Answer: 0.9 nM

Question: And the “cell killing EC50, ARP-1” value [9]?
Answer: 0.7 nM

Question: What about the “cell killing EC50, MM.1S” value [9] of the same binder?
Answer: 0.82 nM

Question: And the “cell killing EC50, NCI-H929” value [9]?
Answer: 0.8 nM

Question: What about the “cell killing EC50, OPM-2” value [9] of the same binder?
Answer: 2.1 nM

Question: What about the “cell killing EC50, U266B1” value [9] of the same binder?
Answer: 0.86 nM

Question: And the Kd [10]?
Answer: 1.2 nM

Question: And the Kd [11]?
Answer: 1.6 nM

Question: What about the Kd [12] of the same binder?
Answer: 2.3 nM

Question: And the Kd [13]?
Answer: 3.9 nM

Question: And the Kd [14]?
Answer: 2.4 nM

Question: What about the Kd [15] of the same binder?
Answer: 1.8 nM

Question: And the Kd [16]?
Answer: 2.7 nM

Question: Does B2 bind [17]?
Answer: no binding (tested: titrated from 200 nM)

Question: Does B2 bind [18]?
Answer: no binding (tested: 67 nM)

Question: Does B2 bind [19]?
Answer: no binding (tested: 67 nM)

B3: 2265-F02 Y180/F404 (unconjugated Ab), unconjugated antibody version of Conjugate 4 (antibody, human IgG1, kappa, V domains shown)
VH: EVQLVESGGGLVQPGGSLRLSCAASGFNISAPGIHWVRQAPGKGLEWVGFINPAGGYTDYADSVKGRFTISADTSKNTAYLQMNSLRAEDTAVYYCARDYIRQYWTYVLDYWGQGTLVTVSS
VL: not shown
modifications: p-azidomethyl-phenylalanine (pAMF) replacing HC-Y180 and HC-F404 by EU numbering (actual positions 186 and 410 as printed)
notes: Aglycosylated humanized IgG1
Question: What does the source list for B3?
Answer: Kd [10]: 1 nM; Kd [11]: 0.9 nM; Kd [12]: 1.3 nM; Kd [15]: 1.3 nM; Kd [16]: 2.8 nM; Kd [20]: 2.1 nM; binding result [17]: no binding (tested: titrated from 200 nM); Kd [21]: 0.9 nM
